Measured values reported in patent US20200317768A1 (published 2020).
Changes are numbered by the printed parent chain. Names and notes keep the numbering of the source.

T1: cynomolgus monkey FcγRIIa2 extracellular domain, C-terminal His-tag (cynomolgus monkey)
T1 construct: also called cyno FcγRIIa2; cynoFcgRIIa2; not shown: His-tag added to C-terminus
T1 chain: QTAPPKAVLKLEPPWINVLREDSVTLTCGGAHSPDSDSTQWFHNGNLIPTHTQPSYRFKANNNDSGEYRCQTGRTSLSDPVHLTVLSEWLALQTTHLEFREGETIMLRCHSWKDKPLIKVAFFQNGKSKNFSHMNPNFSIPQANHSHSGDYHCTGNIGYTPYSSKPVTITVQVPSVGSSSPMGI

T2: cynomolgus monkey FcγRIIa1 extracellular domain, C-terminal His-tag (cynomolgus monkey)
T2 construct: also called cyno FcγRIIa1; cynoFcgRIIa1; not shown: His-tag added to C-terminus
T2 chain: T1 chain with T95P, A121T, K127I, S128A, N130K, N135D, Q142R

T3: cynomolgus monkey FcγRIIa3 extracellular domain, C-terminal His-tag (cynomolgus monkey)
T3 construct: also called cyno FcγRIIa3; cynoFcgRIIa3; not shown: His-tag added to C-terminus
T3 chain: T1 chain with K127I, N130K, H133P, Q142R

T4: cynomolgus monkey FcγRIIb extracellular domain, C-terminal His-tag (cynomolgus monkey)
T4 construct: also called cyno FcγRIIb; cynoFcγRIIb; not shown: His-tag added to C-terminus
T4 chain: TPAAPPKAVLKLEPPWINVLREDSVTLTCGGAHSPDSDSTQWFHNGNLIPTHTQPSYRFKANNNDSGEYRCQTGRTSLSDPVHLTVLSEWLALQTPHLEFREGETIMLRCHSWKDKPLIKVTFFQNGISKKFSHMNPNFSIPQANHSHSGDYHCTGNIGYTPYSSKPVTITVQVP

T5: human FcγRIIb extracellular domain, C-terminal His-tag (human, UniProt P31994 43-217)
T5 construct: also called humanFcgRIIb; not shown: His-tag added to C-terminus
T5 sequence: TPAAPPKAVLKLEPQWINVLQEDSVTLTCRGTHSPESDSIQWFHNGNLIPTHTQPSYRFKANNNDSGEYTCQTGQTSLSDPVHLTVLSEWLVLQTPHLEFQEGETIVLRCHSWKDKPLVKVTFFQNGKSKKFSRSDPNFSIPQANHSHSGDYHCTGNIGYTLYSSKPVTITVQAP

T6: human FcγRIIaR extracellular domain, C-terminal His-tag (human, UniProt P12318 34-217)
T6 construct: also called human FcγRIIa (type R); FcgRIIaR; not shown: His-tag added to C-terminus
T6 chain: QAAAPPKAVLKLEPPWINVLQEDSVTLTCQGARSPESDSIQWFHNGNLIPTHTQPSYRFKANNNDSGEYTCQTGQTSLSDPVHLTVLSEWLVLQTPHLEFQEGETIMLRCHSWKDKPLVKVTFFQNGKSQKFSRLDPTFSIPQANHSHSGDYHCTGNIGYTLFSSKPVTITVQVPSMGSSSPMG

T7: human FcγRIIb extracellular domain with C-terminal His-tag (human, UniProt P31994 43-217)
T7 construct: also called human FcgRIIb
T7 sequence: T5 sequence

B1: MS_M103205H795-SG1/M103202L889-SK1 (antibody, human IgG1, kappa)
heavy: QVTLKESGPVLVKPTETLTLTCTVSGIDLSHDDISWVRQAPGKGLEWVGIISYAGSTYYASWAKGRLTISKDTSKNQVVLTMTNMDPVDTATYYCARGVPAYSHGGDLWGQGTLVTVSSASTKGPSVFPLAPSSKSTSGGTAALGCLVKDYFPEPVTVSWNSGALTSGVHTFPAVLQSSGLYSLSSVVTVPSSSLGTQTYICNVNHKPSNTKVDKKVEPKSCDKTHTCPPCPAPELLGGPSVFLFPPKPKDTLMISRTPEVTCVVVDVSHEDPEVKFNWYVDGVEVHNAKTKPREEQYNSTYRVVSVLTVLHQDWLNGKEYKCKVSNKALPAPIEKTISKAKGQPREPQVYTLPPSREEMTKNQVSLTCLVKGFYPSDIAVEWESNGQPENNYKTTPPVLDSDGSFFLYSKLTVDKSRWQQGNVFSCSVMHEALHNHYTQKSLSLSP
light: DIVMTQSPATLSLSPGERATLSCTSSQSVYHANWLSWFQQKPGQPPKLLIYWASTLAYGVPSRFSGSGSGTDFTLTISSLQPEDAATYYCAGGYGGGRYAFGQGTKVEIKRTVAAPSVFIFPPSDEQLKSGTASVVCLLNNFYPREAKVQWKVDNALQSGNSQESVTEQDSKDSTYSLSSTLTLSKADYEKHKVYACEVTHQGLSSPVTKSFNRGEC
notes: Parent antibody with SG1 human heavy chain constant region; also called MS1032LO06-SG1
B2: M103205H795-MY335 / M103202L889-SK1 (antibody, human IgG1, kappa)
heavy: QVTLKESGPVLVKPTETLTLTCTVSGIDLSHDDISWVRQAPGKGLEWVGIISYAGSTYYASWAKGRLTISKDTSKNQVVLTMTNMDPVDTATYYCARGVPAYSHGGDLWGQGTLVTVSSASTKGPSVFPLAPSSKSTSGGTAALGCLVKDYFPEPVTVSWNSGALTSGVHTFPAVLQSSGLYSLSSVVTVPSSSLGTQTYICNVNHKPSNTKVDKKVEPKSCDKTHTCPPCPAPELLTGPSVFLFPPKPKDTLMISRTPEVTCVVVDVSDEDPEVKFNWYVDGVEVHNAKTKPREEQYNSTYRVVSVLTVLHRDWLNGKEYKCKVSNKALPKPIEKTISKAKGQPREPQVYTLPPSREEMTKNQVSLTCLVKGFYPSDIAVEWESNGQPENNYKTTPPVLDSDGSFFLYSKLTVKKSRWQQGNVFSCSVMHEALHNHYTQKSLSLSP
light: B1 light
notes: CH with G236T/H268D/Q311R/A330K/D413K against SG1 (EU numbering); also called MS1032LO06-MY335
B3: M103205H795-MY351 / M103202L889-SK1 (antibody, human IgG1, kappa)
heavy: B2 heavy with T238N
light: B1 light
notes: CH with G236N/H268D/Q311R/A330K/D413K against SG1 (EU numbering); also called MS1032LO06-MY351
B4: M103205H795-MY205 / M103202L889-SK1 (antibody, human IgG1, kappa)
heavy: B2 heavy with T238N, Q297L, R313Q, K415D
light: B1 light
notes: CH with G236N/H268D/Q295L/A330K against SG1 (EU numbering); also called MS1032LO06-MY205
B5: M103205H795-MY344 / M103202L889-SK1 (antibody, human IgG1, kappa)
heavy: B2 heavy with T238N, Q297L
light: B1 light
notes: CH with G236N/H268D/Q295L/Q311R/A330K/D413K against SG1 (EU numbering); also called MS1032LO06-MY344
B6: M103205H795-MY101 / M103202L889-SK1 (antibody, human IgG1, kappa)
heavy: B2 heavy with T238N, D270E, R313Q, P398M, K415D
light: B1 light
notes: CH with G236N/H268E/A330K/P396M against SG1 (EU numbering); also called MS1032LO06-MY101
B7: M103205H795-MY201 / M103202L889-SK1 (antibody, human IgG1, kappa)
heavy: B2 heavy with T238N, R313Q, K415D
light: B1 light
notes: CH with G236N/H268D/A330K against SG1 (EU numbering); also called MS1032LO06-MY201
B8: M103205H795-MY526/M103202L889-SK1 (antibody, human IgG1, kappa)
heavy: B2 heavy with A233T, S241V, Q297L, R313Q, K415D
light: B1 light
notes: Substitutions introduced into M103205H795-SG1, expressed with M103202L889-SK1 as light chain; EU numbering
B9: M103205H795-MY532/M103202L889-SK1 (antibody, human IgG1, kappa)
heavy: B2 heavy with L236W, S241V, R313Q, K415D
light: B1 light
notes: as for B8
B10: M103205H795-MY530/M103202L889-SK1 (antibody, human IgG1, kappa)
heavy: B2 heavy with R313Q, K328T, K415D
light: B1 light
notes: as for B8
B11: M103205H795-MY531/M103202L889-SK1 (antibody, human IgG1, kappa)
heavy: B2 heavy with L236W, R313Q, K328T, K415D
light: B1 light
notes: as for B8
B12: M103205H795-MY529/M103202L889-SK1 (antibody, human IgG1, kappa)
heavy: B2 heavy with L236W, Q297L, R313Q, K415D
light: B1 light
notes: as for B8
B13: M103205H795-MY528/M103202L889-SK1 (antibody, human IgG1, kappa)
heavy: B2 heavy with L236W, R313Q, K415D
light: B1 light
notes: as for B8
B14: M103205H795-MY527/M103202L889-SK1 (antibody, human IgG1, kappa)
heavy: B2 heavy with A233T, Q297L, R313Q, K415D
light: B1 light
notes: as for B8

Molecular target: T1, cynomolgus monkey FcγRIIa2 …
Assay: SPR (BIACORE), antibody captured, FcγR analyte
Protocol: (§1) The kinetic analysis of interactions between these antibodies and FcγR was carried out using BIACORE® T200 or BIACORE® 4000 (GE Healthcare). HBS-EP+ (GE Healthcare) was used as the running buffer, and the measurement temperature was set to 25° C. A chip produced by immobilizing Protein A. Protein A/G or mouse anti-human IgG kappa light chain (BD Biosciences) onto a Series S Sensor Chip CM4 or CM5 (GE Healthcare) by the amine-coupling method was used. […] After the measurement, the antibody captured on the chip was washed off by allowing reaction with 10 mM glycine-HCl, pH1.5 and 25 mM NaOH so that the chip was regenerated and used repeatedly. The sensorgrams obtained as measurement results were analyzed by the 1:1 Langmuir binding model using the BIACORE® Evaluation Software to calculate the binding rate constant ka (L/mol/s) and dissociation rate constant kd (l/s), and the dissociation constant KD (mol/L) was calculated from these values. […] Regarding such interactions, KD values were calculated using the following 1:1 binding model described in BIACORE® T100 Software Handbook BR1006-48 Edition AE.
(§2) The behavior of interacting molecules according to the 1:1 binding model on BIACORE® can be described by Equation 1: Req=C·R max/(KD+C)+RI, wherein, Req is a plot of steady-state binding levels to analyte concentration. C is concentration, RI is bulk refractive index contribution in the sample, and Rmax is analyte binding capacity of the surface. When this equation is rearranged, KD can be expressed as Equation 2: KD=C·Rmax/(Req−RI)−C. KD can be calculated by substituting the values of Rmax, RI, and C into Equation 1 or Equation 2. From the current measurement conditions, RI=0, C=2 μmol/L can be used.

Row | Kd | Binder
1 | 5100 nM | B1
2 | 1700 nM | B2
3 | 760 nM | B3
4 | 1100 nM | B4
5 | 1100 nM | B5
6 | 1200 nM | B6
7 | 1400 nM | B7

Each binder was assayed against T8, human FcγRIIIaV extracellular domain, C-terminal His-tag (human, UniProt P08637 17-208) (assay: SPR (BIACORE), antibody captured, FcγR analyte).
T8 construct: also called FcgRIIIaV; not shown: His-tag added to C-terminus
T8 sequence (P08637 17-208 F176V): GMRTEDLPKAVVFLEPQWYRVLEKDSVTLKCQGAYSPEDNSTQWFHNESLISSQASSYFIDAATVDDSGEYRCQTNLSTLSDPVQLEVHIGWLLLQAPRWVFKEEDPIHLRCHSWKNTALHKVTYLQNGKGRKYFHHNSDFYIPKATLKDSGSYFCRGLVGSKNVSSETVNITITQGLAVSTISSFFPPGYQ
Protocol: as §1, §2

Row | Kd | Binder
8 | 810 nM | B1
9 | 5000 nM | B2
10 | 14000 nM | B3
11 | 13000 nM | B4
12 | 19000 nM | B5
13 | 11000 nM | B6
14 | 24000 nM | B7

Each binder was assayed against T9, cynomolgus monkey FcγRIIIaS extracellular domain, C-terminal His-tag (cynomolgus monkey, UniProt A3RFZ7 21-206 (rhesus entry)) (assay: SPR (BIACORE), antibody captured, FcγR analyte).
T9 construct: also called cyno FcγRIIIaS; cynoFcγRIIIaS; not shown: His-tag added to C-terminus
T9 sequence (A3RFZ7 21-206): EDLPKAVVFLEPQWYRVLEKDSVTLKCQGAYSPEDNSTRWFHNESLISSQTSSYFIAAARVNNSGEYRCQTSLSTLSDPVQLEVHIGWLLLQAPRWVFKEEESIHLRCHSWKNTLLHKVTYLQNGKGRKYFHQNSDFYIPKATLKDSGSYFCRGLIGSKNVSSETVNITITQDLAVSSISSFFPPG
Protocol: as §1, §2

Row | Kd | Binder
15 | 360 nM | B1
16 | 1500 nM | B2
17 | 5200 nM | B3
18 | 6000 nM | B4
19 | 4900 nM | B5
20 | 3200 nM | B6
21 | 5700 nM | B7

Molecular target: T2, cynomolgus monkey FcγRIIa1 …
Assay: SPR (BIACORE), antibody captured, FcγR analyte
Protocol: as §1, §2

Row | Kd | Binder
22 | 3200 nM | B1
23 | 2000 nM | B2
24 | 920 nM | B3
25 | 900 nM | B4
26 | 890 nM | B5
27 | 1100 nM | B6
28 | 1400 nM | B7

Molecular target: T3, cynomolgus monkey FcγRIIa3 …
Assay: SPR (BIACORE), antibody captured, FcγR analyte
Protocol: as §1, §2

Row | Kd | Binder
29 | 1700 nM | B1
30 | 2700 nM | B2
31 | 1900 nM | B3
32 | 3000 nM | B4
33 | 2200 nM | B5
34 | 3600 nM | B6
35 | 3900 nM | B7

Molecular target: T4, cynomolgus monkey FcγRIIb extracellular …
Assay: SPR (BIACORE), antibody captured, FcγR analyte
Protocol: as §1, §2

Row | Kd | Binder
36 | 1800 nM | B1
37 | 650 nM | B2
38 | 350 nM | B3
39 | 250 nM | B4
40 | 310 nM | B5
41 | 350 nM | B6
42 | 430 nM | B7

What follows are binders tested against T5, human FcγRIIb extracellular domain, … (assay: SPR (BIACORE), antibody captured, FcγR analyte).
Protocol: as §1, §2

Row | Kd | Binder
43 | 4600 nM | B1
44 | 2300 nM | B2
45 | 1200 nM | B3
46 | 560 nM | B4
47 | 720 nM | B5
48 | 490 nM | B6
49 | 1100 nM | B7

Molecular target: T6, human FcγRIIaR extracellular domain, …
Assay: SPR (BIACORE), antibody captured, FcγR analyte
Protocol: as §1, §2

Row | Kd | Binder
50 | 1100 nM | B1
51 | 290 nM | B2
52 | 1800 nM | B3
53 | 1300 nM | B4
54 | 1200 nM | B5
55 | 870 nM | B6
56 | 1900 nM | B7

What follows are binders tested against T7, human FcγRIIb extracellular domain with … (assay: SPR (BIACORE), antibody captured, FcgR analyte).

Row | Kd | Binder
57 | 1200 nM | B8
58 | 830 nM | B9
59 | 1600 nM | B10
60 | 1500 nM | B11
61 | 1400 nM | B12
62 | 2200 nM | B13
63 | 1400 nM | B14

Each binder was assayed against T10, human FcγRIIIaV extracellular domain with C-terminal His-tag (human, UniProt P08637 17-208) (assay: SPR (BIACORE), antibody captured, FcgR analyte).
T10 construct: also called human FcgRIIIaV
T10 sequence (P08637 17-208 F176V): as the sequence (P08637 17-208 F176V) above

Row | Kd | Binder
64 | 4300 nM | B8
65 | 1700 nM | B9
66 | 3600 nM | B10
67 | 2900 nM | B11
68 | 4000 nM | B12
69 | 4200 nM | B13
70 | 4300 nM | B14
